Read-outs that look alike come from different tables or passages of the source.
Key:
PC-3 tumor xenografts = test: PET/CT imaging in mice bearing PC-3 tumor xenografts; type: in vivo; conditions: 1 h post injection, mice
Experimental: (§1) Imaging and biodistribution studies were performed on male NOD.Cg-Rag1^tm1Mom Il2rg^tm1Wjl/SzJ (NRG) mice following previously published procedures. The experiments were conducted following the guidelines established by the Canadian Council on Animal Care and approved by Animal Ethics Committee of the University of British Columbia. The mice were sedated (2.5% isoflurane in oxygen) and injected with 5 × 10^6 PC-3 cells (100 µL; 1:1 PBS/Matrigel) subcutaneously behind the left shoulder. The tumor-bearing mice were used for PET/CT imaging and biodistribution studies when the tumor grew to 5–8 mm in diameter.
PET/CT imaging experiments were performed on a Siemens (Knoxville, TN, USA) Inveon micro PET/CT scanner. Each tumor-bearing mouse was injected with ~3–6 MBq of ^68Ga-labeled tracer through a lateral caudal tail vein under anaesthesia. At around 50 min post injection, a 10 min CT scan was obtained first for localization and attenuation correction after segmentation for reconstructing the PET image, followed by a 10 min static PET scan.

physchem = conditions: n-octanol/DPBS, pH 7.4
Experimental: LogD7.4 values of [^68Ga]Ga-LW02075, [^68Ga]Ga-LW02050, and [^68Ga]Ga-SB3 were measured via the shake flask method. An aliquot of the ^68Ga-labeled tracer (~1.85 MBq) was added to a 15 mL falcon tube containing 3 mL of n-octanol and 3 mL of DPBS (pH 7.4) followed by 1 min of vortex (n = 3). After that, the mixture was centrifuged at 5000 rpm for 10 min, and samples of the n-octanol (1 mL) and buffer (1 mL) layers were collected and counted on a Perkin Elmer (Waltham, MA, USA) Wizard2 2480 automatic gamma counter. The LogD7.4 values of [^68Ga]Ga-LW02075, [^68Ga]Ga-LW02050, and [^68Ga]Ga-SB3 were calculated following the equation: LogD7.4 = log10[(counts in the n-octanol phase)/(counts in the buffer phase)].

[1] = Ex vivo biodistribution in PC-3 tumor-bearing mice; conditions: male, mouse, iv, total radioactivity, mean ± SD, n = 4; for tissue uptake at 1 h: NOD.Cg-Rag1^tm1Mom Il2rg^tm1Wjl/SzJ (NRG); for tissue to tissue ratio at 1 h: NOD.Cg-Rag1tm1Mom Il2rgtm1Wjl/SzJ (NRG)
Experimental: Biodistribution studies were conducted for ^68Ga-labeled SB3, LW02075 and LW02050 in PC-3 tumor-bearing mice (n = 4).
as §1
For biodistribution studies, the mice were injected with the radiotracer (~2–4 MBq), as described above. Blocking of [^68Ga]Ga-LW02075 and [^68Ga]Ga-LW02050 was conducted by co-injection with 100 μg nonradioactive Ga-LW02075 and Ga-LW02050, respectively, through a lateral caudal tail vein under anaesthesia. At 1 h post injection, the mice were sedated and euthanized by CO2 inhalation. Blood was collected via cardiac puncture, and organs/tissues of interest were collected, weighed, and counted on a Perkin Elmer (Waltham, MA, USA) Wizard2 2480 automatic gamma counter.

With `CC(C)C[C@H](NC(=O)[C@H](Cc1c[nH]cn1)NC(=O)CNC(=O)[C@@H](NC(=O)[C@H](C)NC(=O)[C@H](Cc1c[nH]c2ccccc12)NC(=O)[C@H](CCC(N)=O)NC(=O)[C@@H](Cc1ccccc1)NC(=O)COCC(=O)Nc1ccc(CNC(=O)CN2CCN(CC(=O)O)CCN(CC(=O)O)CCN(CC(=O)O)CC2)cc1)C(C)C)C(=O)NO` [[^68Ga]Ga-LW02075, [^68Ga]Ga-DOTA-pABzA-DIG-D-Phe-Gln-Trp-Ala-Val-Gly-His-Leu-NHOH, metal not drawn] the “Excretion pathway in PET images” value (PC-3 tumor xenografts) was “excreted primarily through the renal pathway”, the “Pancreas in PET images” value (PC-3 tumor xenografts) was “high pancreas uptake” and the logD (physchem) was -2.09 ± 0.05. The tissue uptake at 1 h ([1]; PC-3 tumor, 1 h blocked: co-injected with 100 µg nonradioactive Ga-complexed standard, read-out: PC-3 tumor uptake, blocked) was 1.83 ± 0.22 %ID/g, the tissue uptake at 1 h ([1]; PC-3 tumor, 1 h post injection, read-out: PC-3 tumor uptake) was 3.97 ± 1.71 %ID/g and the tissue uptake at 1 h ([1]; adrenal glands, 1 h blocked: co-injected with 100 µg nonradioactive Ga-complexed standard, read-out: Adrenal glands uptake, blocked) was 1.02 ± 0.59 %ID/g. The tissue uptake at 1 h ([1]; adrenal glands, 1 h post injection, read-out: Adrenal glands uptake) was 4.42 ± 2.41 %ID/g, the tissue uptake at 1 h ([1]; blood, 1 h blocked: co-injected with 100 µg nonradioactive Ga-complexed standard, read-out: Blood uptake, blocked) was 1.15 ± 0.26 %ID/g and the tissue uptake at 1 h ([1]; blood, 1 h post injection, read-out: Blood uptake) was 0.76 ± 0.41 %ID/g. It also gave a tissue uptake at 1 h ([1]; bone, 1 h blocked: co-injected with 100 µg nonradioactive Ga-complexed standard, read-out: Bone uptake, blocked) of 0.21 ± 0.07 %ID/g, a tissue uptake at 1 h ([1]; bone, 1 h post injection, read-out: Bone uptake) of 0.2 ± 0.2 %ID/g and a tissue uptake at 1 h ([1]; brain, 1 h blocked: co-injected with 100 µg nonradioactive Ga-complexed standard, read-out: Brain uptake, blocked) of 0.03 ± 0.01 %ID/g. It also gave a tissue uptake at 1 h ([1]; brain, 1 h post injection, read-out: Brain uptake) of 0.03 ± 0.01 %ID/g, a tissue uptake at 1 h ([1]; fat, 1 h blocked: co-injected with 100 µg nonradioactive Ga-complexed standard, read-out: Fat uptake, blocked) of 0.12 ± 0.02 %ID/g and a tissue uptake at 1 h ([1]; fat, 1 h post injection, read-out: Fat uptake) of 0.08 ± 0.05 %ID/g. For the same compound, the tissue uptake at 1 h ([1]; heart, 1 h blocked: co-injected with 100 µg nonradioactive Ga-complexed standard, read-out: Heart uptake, blocked) was 0.34 ± 0.04 %ID/g, the tissue uptake at 1 h ([1]; heart, 1 h post injection, read-out: Heart uptake) was 0.24 ± 0.13 %ID/g and the tissue uptake at 1 h ([1]; kidneys, 1 h blocked: co-injected with 100 µg nonradioactive Ga-complexed standard, read-out: Kidneys uptake, blocked) was 4.98 ± 1.59 %ID/g. For the same compound, the tissue uptake at 1 h ([1]; kidneys, 1 h post injection, read-out: Kidneys uptake) was 3.11 ± 1.18 %ID/g, the tissue uptake at 1 h ([1]; large intestine, 1 h blocked: co-injected with 100 µg nonradioactive Ga-complexed standard, read-out: Large intestine uptake, blocked) was 0.4 ± 0.17 %ID/g and the tissue uptake at 1 h ([1]; large intestine, 1 h post injection, read-out: Large intestine uptake) was 1.71 ± 0.47 %ID/g. It also gave a tissue uptake at 1 h ([1]; liver, 1 h blocked: co-injected with 100 µg nonradioactive Ga-complexed standard, read-out: Liver uptake, blocked) of 5.92 ± 1.69 %ID/g, a tissue uptake at 1 h ([1]; liver, 1 h post injection, read-out: Liver uptake) of 4.14 ± 1.5 %ID/g and a tissue uptake at 1 h ([1]; lungs, 1 h blocked: co-injected with 100 µg nonradioactive Ga-complexed standard, read-out: Lungs uptake, blocked) of 0.94 ± 0.17 %ID/g. It also gave a tissue uptake at 1 h ([1]; lungs, 1 h post injection, read-out: Lungs uptake) of 0.75 ± 0.41 %ID/g, a tissue uptake at 1 h ([1]; muscle, 1 h blocked: co-injected with 100 µg nonradioactive Ga-complexed standard, read-out: Muscle uptake, blocked) of 0.27 ± 0.14 %ID/g and a tissue uptake at 1 h ([1]; muscle, 1 h post injection, read-out: Muscle uptake) of 0.21 ± 0.18 %ID/g. For the same compound, the tissue uptake at 1 h ([1]; pancreas, 1 h blocked: co-injected with 100 µg nonradioactive Ga-complexed standard, read-out: Pancreas uptake, blocked) was 1.55 ± 0.83 %ID/g, the tissue uptake at 1 h ([1]; pancreas, 1 h post injection, read-out: Pancreas uptake) was 17.8 ± 5.24 %ID/g and the tissue uptake at 1 h ([1]; small intestine, 1 h blocked: co-injected with 100 µg nonradioactive Ga-complexed standard, read-out: Small intestine uptake, blocked) was 5.62 ± 1.86 %ID/g. For the same compound, the tissue uptake at 1 h ([1]; small intestine, 1 h post injection, read-out: Small intestine uptake) was 6.72 ± 1.94 %ID/g, the tissue uptake at 1 h ([1]; spleen, 1 h blocked: co-injected with 100 µg nonradioactive Ga-complexed standard, read-out: Spleen uptake, blocked) was 0.35 ± 0.12 %ID/g and the tissue uptake at 1 h ([1]; spleen, 1 h post injection, read-out: Spleen uptake) was 0.26 ± 0.13 %ID/g. The tissue uptake at 1 h ([1]; stomach, 1 h blocked: co-injected with 100 µg nonradioactive Ga-complexed standard, read-out: Stomach uptake, blocked) was 0.73 ± 0.29 %ID/g, the tissue uptake at 1 h ([1]; stomach, 1 h post injection, read-out: Stomach uptake) was 1.23 ± 0.22 %ID/g and the tissue uptake at 1 h ([1]; testes, 1 h blocked: co-injected with 100 µg nonradioactive Ga-complexed standard, read-out: Testes uptake, blocked) was 0.3 ± 0.06 %ID/g. For the same compound, the tissue uptake at 1 h ([1]; testes, 1 h post injection, read-out: Testes uptake) was 0.17 ± 0.1 %ID/g, the tissue to tissue ratio at 1 h ([1]; tumor and bone, 1 h blocked: co-injected with 100 µg nonradioactive Ga-complexed standard, read-out: Tumor/bone uptake ratio, blocked) was 9.3 ± 2.39 and the tissue to tissue ratio at 1 h ([1]; tumor and bone, 1 h post injection, read-out: Tumor/bone uptake ratio) was 30.6 ± 18.9. The tissue to tissue ratio at 1 h ([1]; tumor and kidney, 1 h blocked: co-injected with 100 µg nonradioactive Ga-complexed standard, read-out: Tumor/kidney uptake ratio, blocked) was 0.39 ± 0.09, the tissue to tissue ratio at 1 h ([1]; tumor and kidney, 1 h post injection, read-out: Tumor/kidney uptake ratio) was 1.28 ± 0.33 and the tissue to tissue ratio at 1 h ([1]; tumor and muscle, 1 h blocked: co-injected with 100 µg nonradioactive Ga-complexed standard, read-out: Tumor/muscle uptake ratio, blocked) was 7.85 ± 3.13. For the same compound, the tissue to tissue ratio at 1 h ([1]; tumor and muscle, 1 h post injection, read-out: Tumor/muscle uptake ratio) was 24.8 ± 9.99, the tissue to tissue ratio at 1 h ([1]; tumor and pancreas, 1 h blocked: co-injected with 100 µg nonradioactive Ga-complexed standard, read-out: Tumor/pancreas uptake ratio, blocked) was 1.46 ± 0.76 and the tissue to tissue ratio at 1 h ([1]; tumor and pancreas, 1 h post injection, read-out: Tumor/pancreas uptake ratio) was 0.22 ± 0.05. It also gave a tissue to tissue ratio at 1 h ([1]; tumor and whole blood, 1 h blocked: co-injected with 100 µg nonradioactive Ga-complexed standard, read-out: Tumor/blood uptake ratio, blocked) of 1.65 ± 0.4 and a tissue to tissue ratio at 1 h ([1]; tumor and whole blood, 1 h post injection, read-out: Tumor/blood uptake ratio) of 5.51 ± 1.49.

Reference: publication PMC11243334, “Synthesis and Evaluation of the First ^68Ga-Labeled C-Terminal Hydroxamate-Derived Gastrin-Releasing Peptide Receptor-Targeted Tracers for Cancer Imaging with Positron Emission Tomography” (Molecules, 2024)
